{"source": "patent US20090227489A1", "about": "(UNIVERSITY OF SOUTH FLORIDA A FLORIDA, published 2009)", "proteins": {"B1": {"name": "Stat3β, dominant-negative Stat3 variant (ectopic, from pIRES-Stat3β) (other)", "chain": "AQWNQLQQLDTRYLEQLHQLYSDSFPMELRQFLAPWIESQDWAYAASKESHATLVFHNLLGEIDQQYSRFLQESNVLYQHNLRRIKQFLQSRYLEKPMEIARIVARCLWEESRLLQTAATAAQQGGQANHPTAAVVTEKQQMLEQHLQDVRKRVQDLEQKMKVVENLQDDFDFNYKTLKSQGDMQDLNGNNQSVTRQKMQQLEQMLTALDQMRRSIVSELAGLLSAMEYVQKTLTDEELADWKRRQQIACIGGPPNICLDRLENWITSLAESQLQTRQQIKKLEELQQKVSYKGDPIVQHRPMLEERIVELFRNLMKSAFVVERQPCMPMHPDRPLVIKTGVQFTTKVRLLVKFPELNYQLKIKVCIDKDSGDVAALRGSRKFNILGTNTKVMNMEESNNGSLSAEFKHLTLREQRCGNGGRANCDASLIVTEELHLITFETEVYHQGLKIDLETHSLPVVVISNICQMPNAWASILWYNMLTNNPKNVNFFTKPPIGTWDQVAEVLSWQFSSTTKRGLSIEQLTTLAEKLLGPGVNYSGCQITWAKFCKENMAGKGFSFWVWLDNIIDLVKKYILALWNEGYIMGFISKERERAILSTKPPGTFLLRFSESSKEGGVTFTWVEKDISGKTQIQSVEPYTKQQLNNMSFAEIIMGYKIMDATNILVSPLVYLYPDIPKEEAFGKYCRPESQEHPEADPGAAPYLKTKFICVTFIDAVWK", "notes": "ID; NO:3; NO:4'; It was expressed in B16 cells from pIRES-Stat3β and assayed in nuclear extracts; also called Stat3beta; ST3β"}}, "target": "the molecule itself", "experiment": "EMSA supershift, hSIE probe, nuclear extracts of Stat3β-transfected B16 cells", "description": "EGF-induced Stat3 binding activity in NIH3T3 (lane 4) was used as a positive control. By supershift analysis with antibody that recognizes Stat3 but not Stat3β or antibody that recognizes Stat3β but not Stat3, it was shown that there were Stat3-Stat3 homodimers in mock-transfected B16 cells and empty vector-transfected B16 cells. Overexpression of Stat3β in Stat3β-transfected B16 cells results in mostly Stat3β-Stat3β homodimer formation."}
{"protein": "B1", "values": [{"measurement": "binding result", "value": "binds"}]}
